PMC10350917 (Journal of Medicinal Chemistry, 2023)
Where “and” joins values, the source holds several entries; their conditions need not be identical. Equal values may be shown once.

Key:
[1] = test system: ADC-7 in pBCSK(−) E. coli DH10B; assay: Broth microdilution AST, ADC-7; type: cell-based; conditions: Escherichia coli, E. coli DH10B ADC-7, MB076 fixed at 10 mg/L in combinations, FDC in iron-depleted broth
Procedure: (§1) Susceptibility testing to standard antibiotics was performed by broth microdilution or agar dilution using an Oxoid replicator according to 2021 Clinical and Laboratory Standards Institute (CLSI) guidelines. MICs for CAZ, CTX, FEP, and TOL were determined using cation-adjusted Mueller Hinton MH broth, and MICs for FDC were done in iron-depleted cation-adjusted MH broth according to CLSI methods. MB076, S02030, and VAB were used at a fixed concentration of 10 mg/L. All MICs were interpreted according to the 2021 CLSI guidelines.[43]
(§2) blaADC-7 pBCSK- was cloned and expressed in E. coli DH10B cells as previously described.[44] All other blaADC variants were synthesized by GenScript according to the blaADC-7 pBCSK- strategy, cloning into the XbaI/BamHI sites of the pBCSK- vector.

ADC-33 = ADC-33 (Acinetobacter baumannii, UniProt A7Y407); conditions: ADC-33; substrate
Procedure: Steady-state kinetic parameters were determined by combining pure enzyme with antibiotic substrates in 50 mM NaH2PO4, pH 7.4 at room temperature. Changes in absorbance were measured on a Cary 60 UV–Vis spectrophotometer (Agilent Technologies) and converted to velocity using the change in extinction coefficient specific to nitrocefin (ε482 = 17,400 M^–1·cm^–1), cephalothin (ε262 = 7660 M^–1·cm^–1), ceftazidime (ε260 = 8660 M^–1·cm^–1), cefotaxime (ε260 = 7500 M^–1·cm^–1), cefepime (ε260 = 750 M^–1·cm^–1), cefiderocol (ε259 = 9430 M^–1·cm^–1), and ceftolozane (ε254 = 6810 M^–1·cm^–1). Initial velocities were fit to the Michaelis–Menten equation yielding kcat and KM values. For ADC/substrate combinations in which the KM was too large to accurately determine both kcat and KM values, the initial velocities at kcat/KM values were calculated from linear fits of vo in low [S] ranges (<0.08 × KM).

[2] = test system: ADC-33 in pBCSK(−) E. coli DH10B; assay: Broth microdilution AST, ADC-33; type: cell-based; conditions: Escherichia coli, E. coli DH10B ADC-33, MB076 fixed at 10 mg/L in combinations, FDC in iron-depleted broth
Procedure: as §1, §2

[3] = test system: ADC-212 in pBCSK(−) E. coli DH10B; assay: Broth microdilution AST, ADC-212; type: cell-based; conditions: Escherichia coli, E. coli DH10B ADC-212, MB076 fixed at 10 mg/L in combinations, FDC in iron-depleted broth
Procedure: as §1, §2

[4] = test system: ADC-219 in pBCSK(−) E. coli DH10B; assay: Broth microdilution AST, ADC-219; type: cell-based; conditions: Escherichia coli, E. coli DH10B ADC-219, MB076 fixed at 10 mg/L in combinations, FDC in iron-depleted broth
Procedure: as §1, §2

[5] = test system: ADC-30 in pBCSK(−) E. coli DH10B; assay: Broth microdilution AST, ADC-30; type: cell-based; conditions: Escherichia coli, E. coli DH10B ADC-30, MB076 fixed at 10 mg/L in combinations, FDC in iron-depleted broth
Procedure: as §1, §2

[6] = test system: CO/N=C(\C(=O)N[C@@H]1C(=O)N2C(C(=O)[O-])=C(C[N+]3(C)CCCC3)CS[C@H]12)c1csc(N)n1; assay: purified protein, by the assay type; conditions: 50 mM NaH2PO4 pH 7.4, room temperature
[7] = test system: Cn1c(N)c(NC(=O)NCCN)c[n+]1CC1=C(C(=O)O)N2C(=O)[C@@H](NC(=O)/C(=N\OC(C)(C)C(=O)[O-])c3nsc(N)n3)[C@H]2SC1; assay: purified protein, by the assay type; conditions: 50 mM NaH2PO4 pH 7.4, room temperature
[8] = test system: CC(C)(O/N=C(\C(=O)N[C@@H]1C(=O)N2C(C(=O)[O-])=C(C[n+]3ccccc3)CS[C@H]12)c1csc(N)n1)C(=O)O; assay: purified protein, by the assay type; conditions: 50 mM NaH2PO4 pH 7.4, room temperature
[9] = test system: CC(C)(O/N=C(\C(=O)N[C@@H]1C(=O)N2C(C(=O)[O-])=C(C[N+]3(CCNC(=O)c4ccc(O)c(O)c4Cl)CCCC3)CS[C@H]12)c1csc(N)n1)C(=O)O; assay: purified protein, by the assay type; conditions: 50 mM NaH2PO4 pH 7.4, room temperature
[10] = test system: CC(=O)OCC1=C(C(=O)O)N2C(=O)[C@@H](NC(=O)Cc3cccs3)[C@H]2SC1; assay: purified protein, by the assay type; conditions: 50 mM NaH2PO4 pH 7.4, room temperature
[11] = test system: O=C(Cc1cccs1)N[C@@H]1C(=O)N2C(C(=O)O)=C(/C=C/c3ccc([N+](=O)[O-])cc3[N+](=O)[O-])CS[C@H]12; assay: purified protein, by the assay type; conditions: 50 mM NaH2PO4 pH 7.4, room temperature

In the case of Cn1c(N)c(NC(=O)NCCN)c[n+]1CC1=C(C(=O)O)N2C(=O)[C@@H](NC(=O)/C(=N\OC(C)(C)C(=O)[O-])c3nsc(N)n3)[C@H]2SC1 [ceftolozane], the MIC [1] is reported as 8 µg/mL, the kcat (ADC-33) is reported as 4.23 s^–1 and the MIC [2] is reported as 256 µg/mL. For the same compound, the MIC [3] was 256 µg/mL, the MIC [4] was 128 µg/mL and the MIC [5] was 8 µg/mL.

ADC-7 (Acinetobacter baumannii) was tested, and the kcat/Km ([6]; other: ADC-7, substrate) was 6400 M⁻¹ s⁻¹, the kcat/Km ([7]; other: ADC-7, substrate) was under 1000 M⁻¹ s⁻¹ and the kcat/Km ([8]; other: ADC-7, substrate) was 2000 M⁻¹ s⁻¹. For the same compound, the kcat/Km ([9]; other: ADC-7, substrate) was under 1000 M⁻¹ s⁻¹, the Km ([10]; other: ADC-7, substrate) was 204.2 ± 11.2 µM and the kcat ([10]; other: ADC-7, substrate) was 659 ± 16.6 s⁻¹. The kcat/Km ([10]; other: ADC-7, substrate) was 3.22e+06 ± 260000 M⁻¹ s⁻¹, the Km ([11]; other: ADC-7, substrate) was 57.5 ± 4.6 µM and the kcat ([11]; other: ADC-7, substrate) was 720 ± 18.6 s⁻¹. The kcat/Km ([11]; other: ADC-7, substrate) was 1.25e+07 ± 1.33e+06 M⁻¹ s⁻¹.

Work on ADC-30 (Acinetobacter baumannii) yielded a kcat/Km ([6]; other: ADC-30, substrate) of 4900 M⁻¹ s⁻¹, a kcat/Km ([7]; other: ADC-30, substrate) of under 1000 M⁻¹ s⁻¹ and a kcat/Km ([8]; other: ADC-30, substrate) of 3300 M⁻¹ s⁻¹. The kcat/Km ([9]; other: ADC-30, substrate) was under 1000 M⁻¹ s⁻¹, the Km ([10]; other: ADC-30, substrate) was 174.8 ± 8.8 µM and the kcat ([10]; other: ADC-30, substrate) was 763 ± 16.5 s⁻¹. The kcat/Km ([10]; other: ADC-30, substrate) was 4.36e+06 ± 310000 M⁻¹ s⁻¹, the Km ([11]; other: ADC-30, substrate) was 46.3 ± 3.7 µM and the kcat ([11]; other: ADC-30, substrate) was 538 ± 12.9 s⁻¹. The kcat/Km ([11]; other: ADC-30, substrate) was 1.16e+07 ± 1.21e+06 M⁻¹ s⁻¹.

ADC-33 (Acinetobacter baumannii) gave a kcat/Km ([6]; other: ADC-33, substrate) of 16900 M⁻¹ s⁻¹, a Km ([7]; other: ADC-33, substrate) of 219.3 ± 21.6 µM and a kcat ([7]; other: ADC-33, substrate) of 4.23 ± 0.18 s⁻¹. For the same compound, the kcat/Km ([7]; other: ADC-33, substrate) was 19300 ± 2700 M⁻¹ s⁻¹, the Km ([8]; other: ADC-33, substrate) was 59.3 ± 7.80 µM and the kcat ([8]; other: ADC-33, substrate) was 3.71 ± 0.088 s⁻¹. The kcat/Km ([8]; other: ADC-33, substrate) was 62600 ± 9700 M⁻¹ s⁻¹, the Km ([9]; other: ADC-33, substrate) was 107 µM and 107.2 ± 13.8 µM and the kcat ([9]; other: ADC-33, substrate) was 0.6 ± 0.0315 s⁻¹. It also gave a kcat/Km ([9]; other: ADC-33, substrate) of 5600 ± 1000 M⁻¹ s⁻¹, a Km ([10]; other: ADC-33, substrate) of 95.3 ± 3.5 µM and a kcat ([10]; other: ADC-33, substrate) of 347 ± 4.5 s⁻¹. For the same compound, the kcat/Km ([10]; other: ADC-33, substrate) was 3.64e+06 ± 180000 M⁻¹ s⁻¹, the Km ([11]; other: ADC-33, substrate) was 45.8 ± 6.07 µM and the kcat ([11]; other: ADC-33, substrate) was 707 ± 28.2 s⁻¹. For the same compound, the kcat/Km ([11]; other: ADC-33, substrate) was 1.54e+07 ± 2.66e+06 M⁻¹ s⁻¹.

Compound ADC-162 (Acinetobacter baumannii) has a kcat/Km ([6]; other: ADC-162, substrate) of 2800 M⁻¹ s⁻¹, a kcat/Km ([7]; other: ADC-162, substrate) of under 1000 M⁻¹ s⁻¹ and a kcat/Km ([8]; other: ADC-162, substrate) of 3400 M⁻¹ s⁻¹. The kcat/Km ([9]; other: ADC-162, substrate) was under 1000 M⁻¹ s⁻¹, the Km ([10]; other: ADC-162, substrate) was 382.0 ± 26.4 µM and the kcat ([10]; other: ADC-162, substrate) was 656 ± 22.8 s⁻¹. For the same compound, the kcat/Km ([10]; other: ADC-162, substrate) was 1.72e+06 ± 180000 M⁻¹ s⁻¹, the Km ([11]; other: ADC-162, substrate) was 88.1 ± 8.06 µM and the kcat ([11]; other: ADC-162, substrate) was 591 ± 20 s⁻¹. It also gave a kcat/Km ([11]; other: ADC-162, substrate) of 6.71e+06 ± 840000 M⁻¹ s⁻¹.
